Test results: publication PMC7948816 (2021)

Columns and labels:
[1] = target: T1, alpha-tropomyosin (Oryctolagus cuniculus, UniProt P58772); test: fluorescence titration
[2] = target: T1, alpha-tropomyosin; test: ITC

T1 sequence (P58772 whole entry): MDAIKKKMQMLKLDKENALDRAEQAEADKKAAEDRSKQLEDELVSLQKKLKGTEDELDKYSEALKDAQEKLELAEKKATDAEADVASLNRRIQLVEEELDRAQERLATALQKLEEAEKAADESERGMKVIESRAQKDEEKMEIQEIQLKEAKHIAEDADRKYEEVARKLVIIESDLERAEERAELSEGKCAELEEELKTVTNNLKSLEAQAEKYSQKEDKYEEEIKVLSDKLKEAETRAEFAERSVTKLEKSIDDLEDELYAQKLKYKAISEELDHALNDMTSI

Kd [1] [µM] | Kd [2] [µM] | Binder
15 | – | ENREVGDWHKNIDALSGMEGRKKKFES [cardiac troponin I C-terminal peptide HcTnI-C27-H 184-210]
8 | 11 | ENREVGDWRKNIDALSGMEGRKKKFES [cardiac troponin I C-terminal peptide HcTnI-C27 184-210]
